Assay results taken from paper PMC2819845 (Biochemistry, 2009).

Target: the molecule itself
Assay: crystal structure

B1: phosphorylated Sts-2PGM (phospho-His366) (domain or fragment, mouse, UniProt Q3V3E1 354-624, looked up)
chain: ATISRRGILVVRHGERVDQVFGKSWLQQCTTADGKYYRPDLNFPRSLPRRSNGIKDFENDPPLSSCGIFQARLAGEALLDSGVRVTAVFASPALRCVQTAKHILEELKLEKKLKIRVEPGIFEWMKWEASKATLTFLTLEELKEANFNVDLDYRPALPRCSLMPAESYDQYVERCAVSMGQIINTCPQDMGITLIVSHSSALDSCTRPLLGLPPRECGDFAQLVRKIPSLGMCFCEENREDGKWDLVNPPVKTLTHGANSVFNWRNWISSN
modifications: phosphohistidine at 366 (on NE2; occupancy between 0.50 and 0.70, in three of the four monomers)
binding result: binds
